Article PMC9482650, “Quantitative fragmentomics allow affinity mapping of interactomes” (Nature Communications, 2022)
Values belong to the binder of their own block, whether it stands above or below them.

Tests used:
Assay in all cases: holdup assay
Set-up in all cases: key: below the threshold = too weak to quantify, mostly under pKd 3.1 to 4
Details in all cases: plain residues with an end cap or a label only (N-terminal biotin on a linker: ado-ado)
AHNAK1, Q09666 = biological target: AHNAK1, Q09666
APBA2_1, Q99767 = biological target: T1, APBA2_1, Q99767
T1 sequence (Q99767 563-664, limits assumed, looked up): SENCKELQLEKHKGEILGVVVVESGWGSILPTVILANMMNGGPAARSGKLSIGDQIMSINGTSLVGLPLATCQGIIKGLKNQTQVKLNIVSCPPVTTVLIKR

DFNB31_3, Q9P202 = biological target: T2, DFNB31_3, Q9P202
T2 sequence (Q9P202 811-907, limits assumed, looked up): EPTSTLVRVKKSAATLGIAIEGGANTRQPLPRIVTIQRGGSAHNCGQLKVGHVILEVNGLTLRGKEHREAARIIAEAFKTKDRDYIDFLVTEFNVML

DLG1_2, Q12959 = biological target: DLG1_2, Q12959
DLG1_3, Q12959 = biological target: DLG1_3, Q12959
DLG3_1, Q92796 = biological target: T3, DLG3_1, Q92796
T3 sequence (Q92796 125-227, limits assumed, looked up): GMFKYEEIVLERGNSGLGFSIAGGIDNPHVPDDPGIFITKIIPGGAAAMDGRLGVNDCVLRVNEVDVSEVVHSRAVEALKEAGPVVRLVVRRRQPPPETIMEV

GORASP1, Q9BQQ3 = biological target: GORASP1, Q9BQQ3
HTRA3, P83110 = biological target: T4, HTRA3, P83110
T4 sequence (P83110 354-453, limits assumed, looked up): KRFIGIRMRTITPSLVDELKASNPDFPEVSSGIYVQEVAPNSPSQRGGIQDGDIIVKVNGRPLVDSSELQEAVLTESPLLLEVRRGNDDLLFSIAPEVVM

Inadl_2, Q8NI35 = biological target: Inadl_2, Q8NI35
Inadl_9, Q8NI35 = biological target: Inadl_9, Q8NI35
LDB3, O75112 = biological target: LDB3, O75112
LNX1_2, Q8TBB1 = biological target: LNX1_2, Q8TBB1
LNX2_2, Q8N448 = biological target: T5, LNX2_2, Q8N448
T5 sequence (Q8N448 334-432, limits assumed, looked up): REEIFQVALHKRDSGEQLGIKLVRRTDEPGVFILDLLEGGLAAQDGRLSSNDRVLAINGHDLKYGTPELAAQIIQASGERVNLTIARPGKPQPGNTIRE

MAGI1_2, Q96QZ7 = biological target: MAGI1_2, Q96QZ7
MPDZ_10, O75970 = biological target: T6, MPDZ_10, O75970
T6 sequence (O75970 1624-1722, limits assumed, looked up): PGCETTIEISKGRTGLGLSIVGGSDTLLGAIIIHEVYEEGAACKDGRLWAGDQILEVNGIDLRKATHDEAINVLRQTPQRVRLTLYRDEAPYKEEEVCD

MPP6, Q9NZW5 = biological target: T7, MPP6, Q9NZW5
T7 sequence (Q9NZW5 125-219, limits assumed, looked up): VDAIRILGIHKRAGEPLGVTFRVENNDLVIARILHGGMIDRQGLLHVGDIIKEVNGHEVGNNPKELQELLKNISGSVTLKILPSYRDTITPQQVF

NHERF3_1, Q5T2W1 = biological target: T8, NHERF3_1, Q5T2W1
T8 sequence (Q5T2W1 4-100, limits assumed, looked up): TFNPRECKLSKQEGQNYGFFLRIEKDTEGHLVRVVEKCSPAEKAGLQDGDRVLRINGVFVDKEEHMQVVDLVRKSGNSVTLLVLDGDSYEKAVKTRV

NHERF3_3, Q5T2W1 = biological target: T9, NHERF3_3, Q5T2W1
T9 sequence (Q5T2W1 238-333, limits assumed, looked up): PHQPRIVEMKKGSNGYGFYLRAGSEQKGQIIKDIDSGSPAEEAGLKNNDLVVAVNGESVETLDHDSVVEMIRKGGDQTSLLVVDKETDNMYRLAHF

NHERF4_1, Q86UT5-2 = biological target: NHERF4_1, Q86UT5-2
NOS1, P29475 = biological target: NOS1, P29475
PDLIM1, O00151 = biological target: PDLIM1, O00151
PICK1, Q9NRD5 = biological target: PICK1, Q9NRD5
RAPGEF6, Q8TEU7 = biological target: T10, RAPGEF6, Q8TEU7
T10 sequence (Q8TEU7 525-625, limits assumed, looked up): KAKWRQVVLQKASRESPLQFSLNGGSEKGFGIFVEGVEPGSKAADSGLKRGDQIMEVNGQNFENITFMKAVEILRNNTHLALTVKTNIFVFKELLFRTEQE

SCRIB_3, Q14160 = biological target: SCRIB_3, Q14160
SNTA1, Q13424 = biological target: T11, SNTA1, Q13424
T11 sequence (Q13424 82-180, limits assumed, looked up): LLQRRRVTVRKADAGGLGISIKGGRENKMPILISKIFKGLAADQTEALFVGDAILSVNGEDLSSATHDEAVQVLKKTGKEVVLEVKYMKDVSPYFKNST

TJP3_3, O95049 = biological target: T12, TJP3_3, O95049
T12 sequence (O95049 375-456, limits assumed, looked up): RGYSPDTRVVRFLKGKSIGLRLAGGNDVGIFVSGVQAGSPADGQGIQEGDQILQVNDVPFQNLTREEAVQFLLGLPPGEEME

PDLIM1, O00151, sequence (O00151 1-87): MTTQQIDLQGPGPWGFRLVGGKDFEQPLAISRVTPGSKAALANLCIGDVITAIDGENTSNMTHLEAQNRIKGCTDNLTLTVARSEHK
LNX1_2, Q8TBB1, sequence (Q8TBB1 371-470): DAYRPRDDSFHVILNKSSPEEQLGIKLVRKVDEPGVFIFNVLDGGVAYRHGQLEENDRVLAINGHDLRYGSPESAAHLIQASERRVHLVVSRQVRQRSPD
SCRIB_3, Q14160, sequence (Q14160 999-1103): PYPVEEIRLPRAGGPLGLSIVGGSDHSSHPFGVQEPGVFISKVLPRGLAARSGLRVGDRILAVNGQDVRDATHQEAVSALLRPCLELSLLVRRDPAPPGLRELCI
DLG1_3, Q12959, sequence (Q12959 457-571): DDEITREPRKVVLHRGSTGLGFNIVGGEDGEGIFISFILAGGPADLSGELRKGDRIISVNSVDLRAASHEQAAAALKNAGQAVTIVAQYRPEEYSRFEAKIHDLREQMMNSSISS
MAGI1_2, Q96QZ7, sequence (Q96QZ7 456-580): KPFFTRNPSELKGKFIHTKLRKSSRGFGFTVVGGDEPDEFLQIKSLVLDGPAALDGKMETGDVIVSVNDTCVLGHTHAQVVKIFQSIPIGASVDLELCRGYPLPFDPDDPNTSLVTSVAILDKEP
LDB3, O75112, sequence (O75112 1-94): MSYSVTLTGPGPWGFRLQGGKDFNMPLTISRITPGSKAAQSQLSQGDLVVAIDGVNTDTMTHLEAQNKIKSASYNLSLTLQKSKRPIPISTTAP
NOS1, P29475, sequence (P29475 9-101): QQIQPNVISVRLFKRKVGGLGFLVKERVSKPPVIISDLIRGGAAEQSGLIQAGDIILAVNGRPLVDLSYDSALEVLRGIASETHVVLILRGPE
GORASP1, Q9BQQ3, sequence (Q9BQQ3 1-208): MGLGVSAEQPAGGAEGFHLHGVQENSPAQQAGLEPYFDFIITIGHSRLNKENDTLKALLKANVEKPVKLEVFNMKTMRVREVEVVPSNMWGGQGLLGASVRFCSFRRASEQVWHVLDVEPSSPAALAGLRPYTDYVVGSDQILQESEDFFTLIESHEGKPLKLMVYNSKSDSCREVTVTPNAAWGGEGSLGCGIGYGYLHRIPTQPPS
Inadl_2, Q8NI35, sequence (Q8NI35 238-335): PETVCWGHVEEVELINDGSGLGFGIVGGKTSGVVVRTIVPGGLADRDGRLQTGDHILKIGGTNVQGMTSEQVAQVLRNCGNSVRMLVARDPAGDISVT
AHNAK1, Q09666, sequence (Q09666 4-100): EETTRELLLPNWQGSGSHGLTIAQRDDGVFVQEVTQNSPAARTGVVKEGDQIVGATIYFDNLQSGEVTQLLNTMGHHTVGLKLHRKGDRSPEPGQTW
DLG1_2, Q12959, sequence (Q12959 314-412): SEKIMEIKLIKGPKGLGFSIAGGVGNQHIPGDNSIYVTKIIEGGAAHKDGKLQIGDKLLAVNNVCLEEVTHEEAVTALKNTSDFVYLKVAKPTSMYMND
NHERF4_1, Q86UT5-2, sequence (Q86UT5 other isoform, or with tags, fused parts or gaps): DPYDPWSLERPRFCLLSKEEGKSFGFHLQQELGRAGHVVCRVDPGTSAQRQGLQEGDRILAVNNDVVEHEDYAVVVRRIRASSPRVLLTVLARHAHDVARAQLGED
Inadl_9, Q8NI35, sequence (Q8NI35 1530-1615): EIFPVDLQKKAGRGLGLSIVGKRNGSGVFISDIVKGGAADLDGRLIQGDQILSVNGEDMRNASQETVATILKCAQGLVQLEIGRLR
PICK1, Q9NRD5, sequence (Q9NRD5 17-115): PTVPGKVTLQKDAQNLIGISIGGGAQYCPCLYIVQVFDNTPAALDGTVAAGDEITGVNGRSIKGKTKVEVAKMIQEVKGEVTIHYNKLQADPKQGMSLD

pKd (AHNAK1, Q09666): below the threshold | pKd (APBA2_1, Q99767): below the threshold | pKd (DFNB31_3, Q9P202): below the threshold | pKd (DLG1_2, Q12959): 5.07 | pKd (DLG1_3, Q12959): 5.26 | pKd (DLG3_1, Q92796): 3.69 | pKd (GORASP1, Q9BQQ3): below the threshold | pKd (HTRA3, P83110): below the threshold | pKd (Inadl_2, Q8NI35): below the threshold | pKd (Inadl_9, Q8NI35): below the threshold | pKd (LDB3, O75112): below the threshold | pKd (LNX1_2, Q8TBB1): below the threshold | pKd (LNX2_2, Q8N448): 3.66 | pKd (MAGI1_2, Q96QZ7): 4.32 | pKd (MPDZ_10, O75970): 3.98 | pKd (MPP6, Q9NZW5): below the threshold | pKd (NHERF3_1, Q5T2W1): 4.59 | pKd (NHERF3_3, Q5T2W1): below the threshold | pKd (NHERF4_1, Q86UT5-2): 3.53 | pKd (NOS1, P29475): 3.63 | pKd (PDLIM1, O00151): below the threshold | pKd (PICK1, Q9NRD5): 4.15 | pKd (RAPGEF6, Q8TEU7): below the threshold | pKd (SCRIB_3, Q14160): 4.98 | pKd (SNTA1, Q13424): 4.74 | pKd (TJP3_3, O95049): below the threshold
B1: CRIPT, Q9P021 (peptide)
chain: DTKNYKQTSV

pKd (AHNAK1, Q09666): below the threshold | pKd (APBA2_1, Q99767): below the threshold | pKd (DFNB31_3, Q9P202): 3.52 | pKd (DLG1_2, Q12959): below the threshold | pKd (DLG1_3, Q12959): below the threshold | pKd (DLG3_1, Q92796): below the threshold | pKd (GORASP1, Q9BQQ3): 4.25 | pKd (HTRA3, P83110): 4.15 | pKd (Inadl_2, Q8NI35): 4.67 | pKd (Inadl_9, Q8NI35): below the threshold | pKd (LDB3, O75112): below the threshold | pKd (LNX1_2, Q8TBB1): 3.66 | pKd (LNX2_2, Q8N448): 4.77 | pKd (MAGI1_2, Q96QZ7): below the threshold | pKd (MPDZ_10, O75970): below the threshold | pKd (MPP6, Q9NZW5): 4.54 | pKd (NHERF3_1, Q5T2W1): below the threshold | pKd (NHERF3_3, Q5T2W1): below the threshold | pKd (NHERF4_1, Q86UT5-2): below the threshold | pKd (NOS1, P29475): 4.21 | pKd (PDLIM1, O00151): below the threshold | pKd (PICK1, Q9NRD5): 4.19 | pKd (RAPGEF6, Q8TEU7): below the threshold | pKd (SCRIB_3, Q14160): 3.71 | pKd (SNTA1, Q13424): below the threshold | pKd (TJP3_3, O95049): below the threshold
B2: CNTNAP2, Q9UHC6 (peptide)
chain: IDESKKEWLI

pKd (AHNAK1, Q09666): below the threshold | pKd (APBA2_1, Q99767): below the threshold | pKd (DFNB31_3, Q9P202): below the threshold | pKd (DLG1_2, Q12959): 3.79 | pKd (DLG1_3, Q12959): below the threshold | pKd (DLG3_1, Q92796): below the threshold | pKd (GORASP1, Q9BQQ3): below the threshold | pKd (HTRA3, P83110): below the threshold | pKd (Inadl_2, Q8NI35): below the threshold | pKd (Inadl_9, Q8NI35): below the threshold | pKd (LDB3, O75112): below the threshold | pKd (LNX1_2, Q8TBB1): below the threshold | pKd (LNX2_2, Q8N448): below the threshold | pKd (MAGI1_2, Q96QZ7): 3.56 | pKd (MPDZ_10, O75970): below the threshold | pKd (MPP6, Q9NZW5): below the threshold | pKd (NHERF3_1, Q5T2W1): 3.72 | pKd (NHERF3_3, Q5T2W1): below the threshold | pKd (NHERF4_1, Q86UT5-2): 3.95 | pKd (NOS1, P29475): 3.64 | pKd (PDLIM1, O00151): below the threshold | pKd (PICK1, Q9NRD5): below the threshold | pKd (RAPGEF6, Q8TEU7): below the threshold | pKd (SCRIB_3, Q14160): 3.6 | pKd (SNTA1, Q13424): 3.73 | pKd (TJP3_3, O95049): below the threshold
B3: REELD1, A0A1B0GV85 (peptide)
chain: PSVGSKKTVL

pKd (AHNAK1, Q09666): below the threshold | pKd (APBA2_1, Q99767): below the threshold | pKd (DFNB31_3, Q9P202): below the threshold | pKd (DLG1_2, Q12959): below the threshold | pKd (DLG1_3, Q12959): below the threshold | pKd (DLG3_1, Q92796): below the threshold | pKd (GORASP1, Q9BQQ3): below the threshold | pKd (HTRA3, P83110): below the threshold | pKd (Inadl_2, Q8NI35): below the threshold | pKd (Inadl_9, Q8NI35): below the threshold | pKd (LDB3, O75112): 5.06 | pKd (LNX1_2, Q8TBB1): below the threshold | pKd (LNX2_2, Q8N448): below the threshold | pKd (MAGI1_2, Q96QZ7): below the threshold | pKd (MPDZ_10, O75970): below the threshold | pKd (MPP6, Q9NZW5): below the threshold | pKd (NHERF3_1, Q5T2W1): 5.44 | pKd (NHERF3_3, Q5T2W1): below the threshold | pKd (NHERF4_1, Q86UT5-2): 4.29 | pKd (NOS1, P29475): below the threshold | pKd (PDLIM1, O00151): 5.11 | pKd (PICK1, Q9NRD5): below the threshold | pKd (RAPGEF6, Q8TEU7): below the threshold | pKd (SCRIB_3, Q14160): 3.51 | pKd (SNTA1, Q13424): 3.6 | pKd (TJP3_3, O95049): below the threshold
B4: MYPN, Q86TC9 (peptide)
chain: SRSVVESDEL

pKd (AHNAK1, Q09666): below the threshold | pKd (DFNB31_3, Q9P202): below the threshold | pKd (GORASP1, Q9BQQ3): 4.06 | pKd (HTRA3, P83110): below the threshold | pKd (Inadl_2, Q8NI35): below the threshold | pKd (Inadl_9, Q8NI35): below the threshold | pKd (LNX1_2, Q8TBB1): below the threshold | pKd (LNX2_2, Q8N448): below the threshold | pKd (MPDZ_10, O75970): below the threshold | pKd (MPP6, Q9NZW5): below the threshold | pKd (NHERF3_1, Q5T2W1): 4.18 | pKd (NHERF3_3, Q5T2W1): below the threshold | pKd (NHERF4_1, Q86UT5-2): 4.31 | pKd (PICK1, Q9NRD5): below the threshold | pKd (RAPGEF6, Q8TEU7): below the threshold | pKd (SNTA1, Q13424): below the threshold | pKd (TJP3_3, O95049): below the threshold
B5: NF2, P35240;P35240-1 (peptide)
chain: KSRVAFFEEL

pKd (AHNAK1, Q09666): below the threshold | pKd (APBA2_1, Q99767): below the threshold | pKd (DFNB31_3, Q9P202): below the threshold | pKd (DLG1_3, Q12959): below the threshold | pKd (GORASP1, Q9BQQ3): below the threshold | pKd (HTRA3, P83110): below the threshold | pKd (Inadl_2, Q8NI35): below the threshold | pKd (Inadl_9, Q8NI35): 3.6 | pKd (LDB3, O75112): below the threshold | pKd (LNX1_2, Q8TBB1): below the threshold | pKd (MPDZ_10, O75970): 3.73 | pKd (MPP6, Q9NZW5): below the threshold | pKd (NHERF3_3, Q5T2W1): below the threshold | pKd (NHERF4_1, Q86UT5-2): 3.58 | pKd (PDLIM1, O00151): below the threshold | pKd (SCRIB_3, Q14160): 1.79 | pKd (SNTA1, Q13424): 1.76 | pKd (TJP3_3, O95049): below the threshold
B6: MUC3A, MUC3B, Q02505;Q9H195 (peptide)
chain: KRPEMTSSSV
